Reference: US20150005534A1

Target: CYP97C2 (rice) expressed in E. coli from pRQ-C2 (pCDFDuet-1-CYP97C2) (Rice (O. sativa))
Experiment: cell-based or functional assay

lutein, % of total carotenoids in alpha- and beta-carotene accumulating E. coli with co-expressed hydroxylases (% of total carotenoids) | Substance
29 | CYP97A4 (rice) expressed in E. coli from pRT-A4 (pCOLADuet-1-CYP97A4) (enzyme)
1.58 | HYD4 (maize) expressed in E. coli from pRQ-H4 (pCOLADuet-1-HYD4) (enzyme)
